The record followed here is article PMC5138093 (Journal of molecular biology, 2016).

This series deals with the molecule itself. In words: non-reducing SDS-PAGE and western blot. For orientation: Immunoblotting shows a protein as a band on a membrane.

B1: GST fusion of the extracellular domain of IGPR-1 (GST-E-IGPR-1) (domain or fragment, human, UniProt Q96BF3 23-150, looked up)
chain: LSVQQGPNLLQVRQGSQATLVCQVDQATAWERLRVKWTKDGAILCQPYITNGSLSLGVCGPQGRLSWQAPSHLTLQLDPVSLNHSGAYVCWAAVEIPELEEAEGNITRLFVDPDDPTQNRNRIASFPG
Regarding B1, the binding result is listed as “binds”.
